This passage reports stoichiometry N results from publication PMC12802151.

The target of test [1] is Beilong paramyxovirus (HMC isolate) receptor-binding protein, β-propeller head domain with C-terminal extension (BeiV(HMC)-RBPβ+) (Beilong paramyxovirus (BeiV), isolate from human mesangial cells (HMC)). Put plainly: crystal structure; BeiV(HMC)-RBPβ+ at 3.2 mg/mL, sitting-drop vapor diffusion at room temperature, 0.2 M potassium thiocyanate, 0.1 M sodium cacodylate pH 6.5, 8% poly-γ-glutamic acid polymer; 3.5 Å; a dimer in the asymmetric unit.

In test [2] the target is J paramyxovirus receptor-binding protein, β-propeller head domain with extended C-terminus (JPV-RBPβ+) (J paramyxovirus (JPV)). Put plainly: crystal structure; JPV-RBPβ+ at 3.5 mg/mL, sitting-drop vapor diffusion at room temperature, 0.1 M tris/bicine pH 8.5, 0.2 M ammonium sulfate, Morpheus precipitant mix 4; 2.2 Å; a dimer in the asymmetric unit.

As usually defined, the stoichiometry N is the number of molecules, sites or subunits per partner or assembly. “Beilong paramyxovirus (HMC isolate) receptor-binding protein, β-propeller head domain with C-terminal extension (BeiV(HMC)-RBPβ+) (domain or fragment)” returned a stoichiometry N in test [1] of 2.
In test [2], “J paramyxovirus receptor-binding protein, β-propeller head domain with extended C-terminus (JPV-RBPβ+) (domain or fragment)” yielded a stoichiometry N of 2.
